B1: Complement C1r subcomponent (Homo sapiens), P00736 (parent)
chain: MWLLYLLVPALFCRAGGSIPIPQKLFGEVTSPLFPKPYPNNFETTTVITVPTGYRVKLVFQQFDLEPSEGCFYDYVKISADKKSLGRFCGQLGSPLGNPPGKKEFMSQGNKMLLTFHTDFSNEENGTIMFYKGFLAYYQAVDLDECASRSKSGEEDPQPQCQHLCHNYVGGYFCSCRPGYELQEDTHSCQAECSSELYTEASGYISSLEYPRSYPPDLRCNYSIRVERGLTLHLKFLEPFDIDDHQQVHCPYDQLQIYANGKNIGEFCGKQRPPDLDTSSNAVDLLFFTDESGDSRGWKLRYTTEIIKCPQPKTLDEFTIIQNLQPQYQFRDYFIATCKQGYQLIEGNQVLHSFTAVCQDDGTWHRAMPRCKIKDCGQPRNLPNGDFRYTTTMGVNTYKARIQYYCHEPYYKMQTRAGSRESEQGVYTCTAQGIWKNEQKGEKIPRCLPVCGKPVNPVEQRQRIIGGQKAKMGNFPWQVFTNIHGRGGGALLGDRWILTAAHTLYPKEHEAQSNASLDVFLGHTNVEELMKLGNHPIRRVSVHPDYRQDESYNFEGDIALLELENSVTLGPNLLPICLPDNDTFYDLGLMGYVSGFGVMEEKIAHDLRFVRLPVANPQACENWLRGKNRMDVFSQNMFCAGHPSLKQDACQGDSGGVFAVRDPNTDRWVATGIVSWGIGCSRGYGFYTKVLNYVDWIKKEMEEED
partner: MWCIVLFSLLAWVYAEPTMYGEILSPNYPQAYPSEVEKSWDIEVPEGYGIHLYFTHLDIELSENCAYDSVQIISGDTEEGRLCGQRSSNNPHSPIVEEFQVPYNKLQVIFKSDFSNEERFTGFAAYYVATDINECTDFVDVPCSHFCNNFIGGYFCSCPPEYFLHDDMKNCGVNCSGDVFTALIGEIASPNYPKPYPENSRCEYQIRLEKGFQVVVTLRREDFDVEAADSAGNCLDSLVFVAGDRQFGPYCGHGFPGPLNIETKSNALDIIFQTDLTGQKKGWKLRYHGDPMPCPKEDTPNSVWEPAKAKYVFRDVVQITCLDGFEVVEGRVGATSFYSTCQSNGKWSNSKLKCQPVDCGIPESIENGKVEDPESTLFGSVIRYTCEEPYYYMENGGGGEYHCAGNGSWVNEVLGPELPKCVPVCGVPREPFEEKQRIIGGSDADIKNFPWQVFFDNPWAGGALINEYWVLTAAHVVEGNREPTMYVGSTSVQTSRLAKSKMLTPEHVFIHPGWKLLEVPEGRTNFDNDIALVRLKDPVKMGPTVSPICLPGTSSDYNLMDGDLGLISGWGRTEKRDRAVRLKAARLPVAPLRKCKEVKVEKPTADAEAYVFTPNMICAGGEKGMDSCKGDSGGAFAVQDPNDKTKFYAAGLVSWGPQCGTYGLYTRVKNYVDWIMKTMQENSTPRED

Variants of: B1
Conditions: with c1s_human C1S

Q: For D290G, which “effect of a mutation on the interaction” value is on record?
A: The value was “with no effect”.
